Source: the supplement of paper PMC9170038

Columns and labels:
MS2 coat protein [1] = assay: apparent KD of MS2 coat protein; higher = weaker reporter binding; details: Eterna round: R101
Protocol: (§1)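 RNA-MaP: designed FMN/MS2 RNA switches (84 nt design region) are transcribed on-chip within common flanks and titrated with SNAP-549-labelled MS2 coat protein (about 1-3000 nM) in 100 mM Tris pH 7.5, 80 mM KCl, 4 mM MgCl2, without or with 200 uM FMN. Median apparent KD per design; activation ratio = KD,OFF / KD,ON.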

MS2 coat protein [2] = assay: apparent KD of MS2 coat protein; designed switch direction (-1 OFF switch, 1 ON switch): 1; higher = weaker reporter binding; details: Eterna round: R98
Protocol: as §1

MS2 coat protein [3] = assay: apparent KD of MS2 coat protein, switch OFF state (with FMN for OFF switches, without FMN for ON switches); designed switch direction (-1 OFF switch, 1 ON switch): 1; higher = weaker reporter binding; details: FMN input: 0 or 200 uM; Eterna round: R93 (includes R88 designs)
In short: (§2)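 Illumina sequencing clusters were used for on-chip transcription of designed RNA switches. Titration with SNAP-549-labelled MS2 coat protein followed, in twofold steps from 0.7 or 1.5 nM to 3 µM in 100 mM Tris-HCl pH 7.5, 80 mM KCl, 4 mM MgCl2, without or with constant ligand. Apparent KD is each design's median of fits to normalised cluster binding curves.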

MS2 coat protein [4] = assay: apparent KD of MS2 coat protein, switch ON state; designed switch direction (-1 OFF switch, 1 ON switch): 1; higher = weaker reporter binding; details: FMN input: 0 or 200 uM; Eterna round: R93 (includes R88 designs)
In short: as §2

Sequence | apparent KD of MS2 coat protein (MS2 coat protein [1]; input ligand: FMN 200 uM) [nM] | apparent KD of MS2 coat protein (MS2 coat protein [1]; input ligand: none) [nM] | apparent KD of MS2 coat protein (MS2 coat protein [2]; input ligand: FMN 200 uM) [nM] | apparent KD of MS2 coat protein (MS2 coat protein [2]; input ligand: none) [nM] | other results
CGCGAACAGUUUUAAAAGAGGAUCACCCAUGUGGACUCAUGGUAGGAUAUCGGGAAGGAGGAAACCGAGAAGGGCUGGUGAGCC [salish99_SSNG3_019 #HINGE] (puzzle (switch architecture): Same State NG 3) | 18 | 37.5 |  |  | 
UUCACGGCGGGAAUAAGUGGUACUCAGGAUAUGGACUAGAAAUACAUGAGGAUCACCCAUGUGUUCCAGAAGGGAGGGCAUGCG [Tisorabea] (puzzle (switch architecture): Small Loop Same State NG 3) | 10.3 | 45.6 |  |  | 
CGCUAUGAUGGGUGUAAUAGAGCAUAGGAUAUGCUUGUACAUGAGGAUCACCCAUGUUAUAUUUUGCAGAAGGGUGCAUUUGCG [JR #DistanceFar #Hairpin #NP SLSSNG3 Sub072] (puzzle (switch architecture): Small Loop Same State NG 3) | 255 | 460 |  |  | 
AGUGUCAUCGAGAAGGCCUCAAAAUGAGGAUCACCCAUGUUGUAAUAUGGGAGGAUAUCGAUGAUACAGCUACGUUUCGUAGCA [salish99_InSLSSNG1_020 #HINGE] (puzzle (switch architecture): Inverted Small Loop Same State NG 1) | 58.9 | 98.3 |  |  | 
GGACUCACUUGAGGAUAUCGAGUGGAUAACACUCGAGAAGGCAGGAAAACCUGAGGAUCACCCAGGUAAGAGUCCAAUAAUAAU [Same State NG1 - A3C, U17G Submission 3D] |  |  | 14.4 | 13.2 | 
AAAUGAUAUCAGAAGGCGUGGACGAAACGUCCACGAGGAUAUGAGGAUCACCCAUGUCAGGUCAGCCUGCAAAGCAGGCUGACC [#SharedSequence - IExNG1: 7-4] (puzzle (switch architecture): Inverted Exclusion NG 1) | 562 | 50.3 |  |  | 
GUAGCUAUCGGAGGAUAUUCAUAGCGGAAACGCACAUGAGGAUCACCCAUGUGGCGAAAGCCUUGGGAGAAGGCCGAUAGCUAC [jl-sng2-2.30 Eli mod] |  |  | 17.7 | 99.3 | 
GCAGCUAAUGCAGGAUAUCAGCACGUGUAGUGCUGAGAAGGGCACAUGAGGAUACCGACUGUGAUCAAUUAAUAUUAAUGCUGC [salish99#hingeEx3_55-58_003] (puzzle (switch architecture): Exclusion NG 1) | 6.87 | 9.43 |  |  | 
GCGGAGGGCACAGGAUAUCGUCCUUAGUUGGUACGAGAAGGGUGGCGCUGCCACAUGAGGAUCACCCAUGUGCCCAAACUAUAG [Eresgeises] |  |  | 639 | 211 | 
CCCUUUAGAAAAGGGACAUGAGGAUCACCCAUGUAGGCUGCACAGGAUAUCGAUCGGAGGCGGUACGAGAAGGGUGACGUCAUU [Zaarqu] |  |  | 64 | 52.3 | 
GCAGCUAAUGCAGGAUAUCAGCACGUGUAGUGCUGAGAAGGGCACAUGAGGAUACUGACUGUGAUCAAUUAAUAUUAAUGCUGC [salish99#hingeEx3_55-58_004] (puzzle (switch architecture): Exclusion NG 1) | 9.19 | 63.5 |  |  | 
AAGAUACUUACAGGAUAUAGGGCAGAGGGUGCCCUAGAAGGGUGAACAUGAGGAUCACCCAUGUAUGUAUCUGAUUAGAAGGCA [Lezaraoren] |  |  | 119 | 73.2 | 
GAUUACUUCACAGGAUAUAAAAUAAAGCAGAUUUUAGAAGGGUGAGCCUCGUCGACCGCGACAUGAGGAUCACCCAUGUUGUGU [Bitetiqu] |  |  | 50.8 | 29.3 | 
CAUAUAUGGUGAGGAUAUGCAAAGGAUCACCUUGUAGAAGGCAUCAGGGUAGAAGGUGCAAGGAUCACCUGUAAGGAUAUAUCC [pwkr2 ssNG1 DX.26] |  |  | 412 | 1630 | 
GUAGCAUACCGAGGAUAUUCAUAUAAUAAAUAAACAUGAGGACCACCCAUGUGGCGAAAGCCUUGGGAGAAGGCGGAAUGCUAC [Xeonanis 20 - mod55 1] |  |  | 70.9 |  | 
GUAGCUAUCGCAGGAUAUCCUCAGGCGAAAGCCACAUGAGGAUCACCCAUGUAAUUAAAGAAAUUGGAGAAGGGCGAUAGCUAC [jl-sng2-2.38 Eli mod] |  |  | 36.4 | 571 | 

Sequence | apparent KD of MS2 coat protein (MS2 coat protein [1]; input ligand: FMN 200 uM) [nM] | apparent KD of MS2 coat protein (MS2 coat protein [1]; input ligand: none) [nM] | apparent KD of MS2 coat protein (MS2 coat protein [2]; input ligand: FMN 200 uM) [nM] | apparent KD of MS2 coat protein (MS2 coat protein [2]; input ligand: none) [nM] | other results
GCGGCCCGGGAGAAGGACAUGAGGAUCACCCAUGUCGCCGGGCCCGGGAAACCGGGCCCGGCCAUGUAGGAUAUCCCGGGCCGC [#This is a good prank] (puzzle (switch architecture): Inverted Exclusion NG 2) | 5.14 | 4.59 |  |  | 
AAAACAUGAGGAUCACCCAUGUAUAGAUCGAUUAUUAGGAGUGAGGAUAUGCAAGUUAUAAGGAAGCAGAAGGCACAGGGAAAA [JR_SSNG3_Sub073] |  |  | 23.2 | 23.9 | 
GGACUCACUUGAGGAUAUCGAGUGGAAUACACUCGAGAAGGCAGGGAAACCUGAGGAUCACCCAGGUAAGAGUCCAAUAAUAAA [Same State NG1 - A3C, U17G Submission 2C] |  |  | 18.7 | 43.4 | 
CUUACUUUGUAGAAGGGUGACAUGAGGAUCACCCAUGUGCGUCGCCUGAAAGACCAGGGUACGCCACAGGAUAUACAAAGUAAG [Titerexe] (puzzle (switch architecture): Inverted Same State NG 2) | 128 | 28.4 |  |  | 
CCUGCACUUCAAGGAUAUCCAGUCGUUUCGACUGGAGAAGGUGAGGAUCACCCAUCUAGCCUGACGUUUGUCAGGCAUGCAGGU [#AddUracilToBrourdLoops 7 - Jieux - Exclusion NG1] (puzzle (switch architecture): Exclusion NG 1) | 81.7 | 84.3 |  |  | 
UUGAAUCGAAACAUGAGGAUCACCCAUGUGUUGUAAUUGACAUAGGAUAUGUAUAUACUUUUAUAAUAGAAGGAUGACGAUACU [S-state NG3 31] (puzzle (switch architecture): Same State NG 3) | 12 | 15.8 |  |  | 
CAGUCGACCAUAACAAGGUCGACUGACUUCUGAGGAUCACCCAGAAGGCGUCACCUAAUAGGUGACGAGGAUAUGGAGUGUAAA [#SharedSequence IExNG# - 7] (puzzle (switch architecture): Inverted Exclusion NG 3) | 92.7 | 32 |  |  | 
AAGUGAAAUCAGAAGGGCUCCAGCAAAGCUGGAGCAGGAUAUGAGGAUCACCCAUGUCACCUGACGGUCGAAACGACCGUCAGG [#SharedSequence - IExNG1: 6-2] (puzzle (switch architecture): Inverted Exclusion NG 1) | 521 | 56.9 |  |  | 
AAAAUGAUUUUAGGAUAUGACUCCGAAACGGAGUCAGAAGGAGGAUCACCCUUUCAAAGCUCAGCGUCGAAAGACGCUGAGCAA [#SharedSequence - ExNG1-20] (puzzle (switch architecture): Exclusion NG 1) | 1200 | 201 |  |  | 
AGGAGAAAUGUAGGAUAUAUAUAUAUAUAUAGGCAAAGCGUAUAUAUAUAUAUAGAAGGACAUGAGGAUCACCCAUGUUUCCCU [#Lowering the energy 12] (puzzle (switch architecture): Small Loop Exclusion NG 1) | 9.42 | 10.2 |  |  | 
AAGCACGAAGAUUAUUAUGAAUAAACAUGAGGAUCACCCAUGUAGGAUAUCGACUCGAAUAGAGUCGAGAAGGACAAAACGUGC [#BasePairInsertion1E] (puzzle (switch architecture): Exclusion NG 3) | 11.6 | 6.96 |  |  | 
ACAGGUCGUGAGAAGGCGGAAAGCACCGUCGAAAGACGGUGCAAUUAAGAUCUUCGAGGAUCACCCGAGGAUAUCACGACCUGA [#SharedSequence - IExNG2: 15] (puzzle (switch architecture): Inverted Exclusion NG 2) | 654 | 75.1 |  |  | 
GAAAAACAUGAGGAUCACCCAUGUAAGAUAAACACAGGAUAUGCGAAAAGAAAGAAAGAAGCAGAAGGGUGAAAAG [Mat - Same State 1 - Tesla mod - 42] |  |  |  |  | apparent KD of MS2 coat protein (MS2 coat protein [3]): 43.8 nM; apparent KD of MS2 coat protein (MS2 coat protein [4]): 15.2 nM
UGUAAUAUUAUAGGAUAUGGAUACGAUACGUAUCCAGAAGGGUGAUUAAACUAUAAUCUAUACAUGAGGAUCACCCAUGUUUAU [AtrosYaY10] (puzzle (switch architecture): Same State NG 1) | 157 | 173 |  |  | 
AUAACACAUGAGGAUCACCCAUGUAGAUCCACGUCAGGAUAUGCAAAGAAAAUAAACAAAGCAGAAGGGACAAUAA [SS 1 Tesla 1] |  |  |  |  | apparent KD of MS2 coat protein (MS2 coat protein [3]): 49.6 nM; apparent KD of MS2 coat protein (MS2 coat protein [4]): 47.3 nM
AAGAAACAUGAGGAUCACCCAUGUAAAUAAAUCUCAGGAUAUCGUACAUGGAAGAUCUAACGAGAAGGGAGAAGAA [Pariah 1 (MS2 Riboswitches - Same State 1)] |  |  |  |  | apparent KD of MS2 coat protein (MS2 coat protein [3]): 63.4 nM; apparent KD of MS2 coat protein (MS2 coat protein [4]): 85.7 nM
